This is an account of results in the DeepSol protein solubility set.

The nature of this data set: soluble on expression in E. coli; label from the status in PepcDB or PDB records.
For “AAAAAAMIVQRVVLNSRPGKNGNPVAENFRMEEVYLPDNINEGQVQVRTLYLSVDPYMRCRMNEDTGTDYITPWQLSQVVDGGGIGIIEESKHTNLTKGDFVTSFYWPWQTKVILDGNSLEKVDPQLVDGHLSYFLGAIGMPGLTSLIGIQEKGHITAGSNKTMVVSGAAGACGSVAGQIGHFLGCSRVVGICGTHEKCILLTSELGFDAAINYKKDNVAEQLRESCPAGVDVYFDNVGGNISDTVISQMNENSHIILCGQISQYNKDVPYPPPLSPAIEAIQKERNITRERFLVLNYKDKFEPGILQLSQWFKEGKLKIKETVINGLENMGAAFQSMMTGGNIGKQIVCISEEISL”, the “soluble on expression in E. coli” value is “soluble”.

With “AALGPSSQNVTEYVVRVPKNTTKKYNIMAFNAADKVNFATWNQARLERDLSNKKIYQEEEMPESGAGSEFNRKLREEARRKKYGIVLKEFRPEDQPWLLRVNGKSGRKFKGIKKGGVTENTSYYIFTQCPDGAFEAFPVHNWYNFTPLARHRTLTAEEAEEEWERRNKVLN”, the “soluble on expression in E. coli” value was “soluble”. For “AAPGKPTIAWGNTKFAIVEVDQAATAYNNLVKVKNAADVSVSWNLWNGDTGTTAKILLNGKEAWSGPSTGSSGTANFKVNKGGRYQMQVALCNADGCTASDATEIVVADTDGSHLAPLKEPLLEKNKPYKQNSGKVVGSYFVEWGVYGRNFTVDKIPAQNLTHLLYGFIPICGGNGINDSLKEIEGSFQALQRSCQGREDFKVSIHDPFAALQKAQKGVTAWDDPYKGNFGQLMALKQAHPDLKILPSIGGWTLSDPFFFMGDKVKRDRFVGSVKEFLQTWKFFDGVDIDWEFPGGKGANPNLGSPQDGETYVLLMKELRAMLDQLSAETGRKYELTSAISAGKDKIDKVAYNVAQNSMDHIFLMSYDFYGAFDLKNLGHQTALNAPAWKPDTAYTTVNGVNALLTQGVKPGKIVVGTAMYGRGWTGVNGYQNNIPFTGTATGPVKGTWENGIVDYRQIASQFMSGEWQYTYDATAEAPYVFKPSTGDLITFDDARSVQAKGKYVLDKQLGGLFSWEIDADNGDILNSMNASLGNSAGVQLEHHHHHH” the value was “soluble”; for “AASPPTEEAVVATEPLTREDLIAYLASGCKSKEKWRIGTEHEKFGFEVNTLRPMKYDQIAELLNSIAERFEWEKVMEGDKIIGLKQGKQSISLEPGGQFELSGAPLETLHQTCAEVNSHLYQVKAVAEEMGIGFLGMGFQPKWRREDIPTMPKGRYDIMRNYMPKVGSLGLDMMLRTCTVQVNLDFSSEADMIRKFRAGLALQPIATALFANSPFTEGKPNGFLSMRSHIWTDTDKDRTGMLPFVFDDSFGFEQYVDYALDVPMYFAYRNGKYVDCTGMTFRQFLAGKLPCLPGELPTYNDWENHLTTIFPEVRLKRYMEMRGADGGPWRRLCALPAFWVGLLYDEDVLQSVLDLTADWTPAEREMLRNKVPVTGLKTPFRDGLLKHVAEDVLKLAKDGLERRGYKEVGFLNAVTEVVRTGVTPAENLLEMYNGEWGQSVDPVFQELLY”, “soluble”; for “ADETLAEFHVEMGGCENCHADGEPSKDGAYEFEQCQSCHGSLAEMDDNHKPHDGLLMCADCHAPHEAKVGEKPTCDTCHDDGRTAK”, “soluble”. For “AEAQNDPLLPGYSFNAHLVAGLTPIEANGYLDFFIDRPLGMKGYILNLTIRGQGVVKNQGREFVCRPGDILLFPPGEIHHYGRHPEAREWYHQWVYFRPRAYWHEWLNWPSIFANTGFFRPDEAHQPHFSDLFGQIINAGQGEGRYSELLAINLLEQLLLRRMEAINESLHPPMDNR” the value was “soluble”; for “AEMKNLKIEVVRYNPEVDTAPHSAFYEVPYDATTSLLDALGYIKDNLAPDLSYRWSCRMAICGSCGMMVNNVPKLACKTFLRDYTDGMKVEALANFPIERDLVVDMTHFIESLEAIKPYIIGNSRTADQGTNIQTPAQMAKYHQFSGCINCGLCYAACPQFGLNPEFIGPAAITLAHRYNEDSRDHGKKERMAQLNSQNGVWSCTFVGYCSEVCPKHVDPAAAIQQGKVESSKDFLIATLKPR”, “soluble”; for “AFMQDRLKIMRQQNPAASLQHQWVDYEQISSHLKRAVIAAEDARFLQHQGFDYKAIETAWKKNLKQRKWAAGGSTISQQLAKNLFLSTEKTVWRKSRETLITLMLEEFLTKRRILEIYLNIIEWGDGIFGIEAAARHYFGISAASLTPAQAAWLASIIPNPRFYDTRRTLPKLLNKSRIILSRLPAAKIP”, “not soluble”. For “AGCEGLRIGQSALQARLSDQIDKLTQAEQHANQMLIDVRSRNHDTMKHITAIKSAQPKADTQAYIQNWADQYSQYDRFLKGENAYVAGVLYDFLEKARASNVSVSLHMHTPLSSLPFSPADQVSLVGNILENALDSAAEAREKAEIKLETSLRSGLYVLTCENSTPGMDPKVLDTIYQSFGRSTKNGAHEGMGTYIIQKLVKGAFGRLDFTYRHPIFRLEIKIPFQ” the value was “not soluble”. For “AGGEDRGDGEPVSVVTVRVQYLEDTDPFACANFPEPRRAPTCSLDGALPLGAQIPAVHRLLGAPLKLEDCALQVSPSGYYLDTELSLEEQREMLEGFYEEISKGRKPTLILRTQLSVRVNAILEKLYSSSGPELRRSLFSLKQIFQEDKDLVPEFVHSEGLSCLIRVGAAADHNYQSYILRALGQLMLFVDGMLGVVAHSDTIQWLYTLCASLSR”, the “soluble on expression in E. coli” value is “not soluble”. For “AGMSEAPRAETFVFLDLEATGLPSVEPEIAELSLFAVHRSSLENPEHDESGALVLPRVLDKLTLCMCPERPFTAKASEITGLSSEGLARCRKAGFDGAVVRTLQAFLSRQAGPICLVAHNGFDYDFPLLCAELRRLGARLPRDTVCLDTLPALRGLDRAHSHGTRARGRQGYSLGSLFHRYFRAEPSAAHSAEGDVHTLLLIFLHRAAELLAWADEQARGWAHIEPMYLPPDDPSLEA” the value was “soluble”. For “AGTGVVSVQFNNGSSPASSNSIYARFKVTNTSGSPINLADLKLRYYYTQDADKPLTFWCDHAGYMSGSNYIDATSKVTGSFKAVSPAVTNADHYLEVALNSDAGSLPAGGSIEIQTRFARNDWSNFDQSNDWSYTAAGSYMDWQKISAFVGGTLAYGSTP” the value was “soluble”; for “AHHHHHHGSALSDKLDLVNPSEIRKLFDLAAGMKDVISLGIGEPDFDTPAHIKEYAKEGLDKGLTHYGPNVGLPELREAIAEKLKKQNGIEADPNSEIMVLVGANQAFLMSLATFLKDGEEVLIPSPMFVSYAPAVILAGGKPVEVPTYEDNEFRINVDDLKKHVSEKTRALIINSPNNPTGAVLTKKDLEEIADFANEHDLMIISDEVYEHFIYDGAKHYSIAALDGMFGRTITVNGFSKTFAMTGWRLGFVVAPSWVIEKMVKFQMYNATCPVTFIQYAAAKALRDERSWKAVEEMRKEYERRRNLVWKRLNEMGLPTVEPKGAFYIFPRIKDTGLSSKEFSELMLMEAKVAVVPGSAFGRAGEGYIRISYATAYEKLEEAMNRMEKVLKEKKLI”, “soluble”. For “AHHHHHHGSEFNIIIAGVGGQGGLTLSRIIGSAAMVEGYRVRIGETLGMSQRYGSVLSYLRFGDSVYSPLIEEGKANLMLALEPVEALRNAAFLGKGSYAIVNAYPIHTATTLVGKEKYPSLEEIKEALEKICRVEMMNFQKEADLINPRTTGVLMLGYAQGKGLLPLKKESIIEGIRLTLREKLWEINFKAFERGRELAKHVCCDV” the value was “soluble”; for “AHHHHHHGSEIKYRPEELTKLPRSVEYREGKVYMINQRLLPREFKVEEFTTVEAVAEAIKNMTVRGAPAIGAAAAFGLALYAETSKAKTKDEFFDGFYRAYETLKNTRPTAVNLFWALNRIKKLVEEHREDSLDEIKRLIVEEAQKIADEDVEANLRMGHYGAEVLPEGNILTHCNAGSLATVHLGTVGAVVRVMHKEGTLKLLWLDETRPVLQGARLSAWEYSYDGLNVKLIADNAAAFVMQQGKVDAIIVGADRIVANGDFANKIGTYMLAVLAKEHGIPFFTVAPLSSIDMSLSSGKEIPIEERSPEEVLTCGGCRIAPDVPVYNPAFDVTPHKYLTGIITDRGVVWPPFKRNLKKLFETL”, “soluble”. For the sequence “AHHHHHHGSKLKFWREVAIDIISDFETTIMPFFGNPDGGKLVKISPSGDETKLVDKLAEDLILSRITELGVNVVSEEVGVIDNESEYTVIVDPLDGSYNFIAGIPFFALSLAVFKKDKPIYAIIYEPMTERFFEGIPGEGAFLNGKRIKVRKTPDEKPSISFYSRGKGHEIVKHVKRTRTLGAIALELAYLAMGALDGVVDVRKYVRPTDIAAGTIIAKEAGALIKDSAGKDIDISFNATDRLDVIAVNSEELLKTILSLLE”, the “soluble on expression in E. coli” value was “soluble”.
